# Assay results from PMC10397247.
# T1: 4H3364-bN
# T1 chain: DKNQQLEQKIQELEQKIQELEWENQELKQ
# T2: 4H906-bN
# T2 chain: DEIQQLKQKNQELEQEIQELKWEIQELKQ
# T3: 4H1899-bN
# T3 chain: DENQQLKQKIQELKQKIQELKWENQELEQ
# T4: 4H112-bN
# T4 chain: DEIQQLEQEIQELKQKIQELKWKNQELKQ
# T5: 4H3277-bN
# T5 chain: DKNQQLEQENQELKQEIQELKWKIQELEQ
# T6: 4H3926-bN
# T6 chain: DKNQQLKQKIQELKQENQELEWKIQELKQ
# T7: 4H1710-bN
# T7 chain: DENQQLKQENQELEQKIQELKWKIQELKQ
# T8: 4H3010-bN
# T8 chain: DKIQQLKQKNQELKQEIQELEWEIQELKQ
# T9: 4H118-bN
# T9 chain: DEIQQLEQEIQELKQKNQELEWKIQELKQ
# T10: 4H1158-bN
# T10 chain: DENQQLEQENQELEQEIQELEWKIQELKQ
# T11: 4H855-bN
# T11 chain: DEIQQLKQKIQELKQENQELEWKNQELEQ
# T12: 4H3427-bN
# T12 chain: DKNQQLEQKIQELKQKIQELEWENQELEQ
# T13: 4H754-bN
# T13 chain: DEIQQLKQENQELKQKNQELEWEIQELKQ
# T14: 4H1831-bN
# T14 chain: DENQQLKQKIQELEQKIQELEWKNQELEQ
# T15: 4H4073-bN
# T15 chain: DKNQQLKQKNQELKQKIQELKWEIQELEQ
# T16: 4H683-bN
# T16 chain: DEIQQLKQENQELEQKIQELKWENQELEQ
# T17: 4H918-bN
# T17 chain: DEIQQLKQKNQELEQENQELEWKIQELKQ
# T18: 4H1373-bN
# T18 chain: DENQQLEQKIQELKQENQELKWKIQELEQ
# T19: 4H457-bN
# T19 chain: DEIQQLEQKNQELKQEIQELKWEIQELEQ
# T20: 4H2627-bN
# T20 chain: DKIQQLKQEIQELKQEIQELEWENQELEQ
# T21: 4H3628-bN
# T21 chain: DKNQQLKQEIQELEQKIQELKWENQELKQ
# T22: 4H968-bN
# T22 chain: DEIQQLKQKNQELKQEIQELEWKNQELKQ
# T23: 4H780-bN
# T23 chain: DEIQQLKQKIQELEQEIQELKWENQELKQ
# T24: 4H3298-bN
# T24 chain: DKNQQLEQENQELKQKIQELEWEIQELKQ
# T25: 4H346-bN
# T25 chain: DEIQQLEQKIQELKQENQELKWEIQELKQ
# T26: 4H3162-bN
# T26 chain: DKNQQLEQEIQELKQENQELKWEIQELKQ
# T27: 4H1544-bN
# T27 chain: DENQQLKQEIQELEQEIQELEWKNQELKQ
# T28: 4H2586-bN
# T28 chain: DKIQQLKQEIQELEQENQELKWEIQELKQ
# T29: 4H575-bN
# T29 chain: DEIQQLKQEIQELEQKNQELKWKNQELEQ
# T30: 4H1081-bN
# T30 chain: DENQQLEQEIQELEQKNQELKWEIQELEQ
# T31: 4H591-bN
# T31 chain: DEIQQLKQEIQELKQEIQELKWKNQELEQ
# T32: 4H3613-bN
# T32 chain: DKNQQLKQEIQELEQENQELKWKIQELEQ
# T33: 4H3112-bN
# T33 chain: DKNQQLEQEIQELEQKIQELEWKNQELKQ
# T34: 4H3175-bN
# T34 chain: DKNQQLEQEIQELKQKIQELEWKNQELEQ
# T35: 4H1985-bN
# T35 chain: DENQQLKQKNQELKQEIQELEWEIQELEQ
# T36: 4H797-bN
# T36 chain: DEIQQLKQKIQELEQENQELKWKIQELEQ
# T37: 4H1348-bN
# T37 chain: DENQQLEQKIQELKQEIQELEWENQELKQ
# T38: 4H170-bN
# T38 chain: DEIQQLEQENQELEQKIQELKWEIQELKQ
# T39: 4H953-bN
# T39 chain: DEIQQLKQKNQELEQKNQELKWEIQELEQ
# T40: 4H3462-bN
# T40 chain: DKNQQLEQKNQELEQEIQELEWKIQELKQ
# T41: 4H2673-bN
# T41 chain: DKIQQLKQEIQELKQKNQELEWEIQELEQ
# T42: 4H3497-bN
# T42 chain: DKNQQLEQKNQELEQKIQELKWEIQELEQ
# T43: 4H2702-bN
# T43 chain: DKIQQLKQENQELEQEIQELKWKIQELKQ
# T44: 4H626-bN
# T44 chain: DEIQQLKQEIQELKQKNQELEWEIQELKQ
# T45: Core_NINN-es_KKKK
# T45 chain: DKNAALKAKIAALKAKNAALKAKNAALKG
# T46: Core_NNIN-es_KEKE
# T46 chain: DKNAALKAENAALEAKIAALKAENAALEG
# B1: 4H1081-bN (peptide)
# chain: DENQQLEQEIQELEQKNQELKWEIQELEQ
# B2: Core_NINN-es_EEEE (peptide)
# chain: DENAALEAEIAALEAENAALEAENAALEG
# B3: Core_NNIN-es_EKEK (peptide)
# chain: DENAALEAKNAALKAEIAALEAKNAALKG
# Assays:
# [1] = molecular target: T1, 4H3364-bN; assay: two-hybrid library CCNG1;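 also: natural log of median RNA to DNA barcode read ratio; higher means stronger binding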
# [2] = molecular target: T2, 4H906-bN; assay: two-hybrid library CCNG1;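 also: natural log of median RNA to DNA barcode read ratio; higher means stronger binding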
# [3] = molecular target: T3, 4H1899-bN; assay: two-hybrid library CCNG1;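 also: natural log of median RNA to DNA barcode read ratio; higher means stronger binding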
# [4] = molecular target: T4, 4H112-bN; assay: two-hybrid library CCNG1;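 also: natural log of median RNA to DNA barcode read ratio; higher means stronger binding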
# [5] = molecular target: T5, 4H3277-bN; assay: two-hybrid library CCNG1;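 also: natural log of median RNA to DNA barcode read ratio; higher means stronger binding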
# [6] = molecular target: T6, 4H3926-bN; assay: two-hybrid library CCNG1; conditions: mean of both orientations;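 also: natural log of median RNA to DNA barcode read ratio; higher means stronger binding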
# [7] = molecular target: T7, 4H1710-bN; assay: two-hybrid library CCNG1
# [8] = molecular target: T8, 4H3010-bN; assay: two-hybrid library CCNG1
# [9] = molecular target: T9, 4H118-bN; assay: two-hybrid library CCNG1
# [10] = molecular target: T10, 4H1158-bN; assay: two-hybrid library CCNG1
# [11] = molecular target: T11, 4H855-bN; assay: two-hybrid library CCNG1
# [12] = molecular target: T12, 4H3427-bN; assay: two-hybrid library CCNG1
# [13] = molecular target: T13, 4H754-bN; assay: two-hybrid library CCNG1
# [14] = molecular target: T14, 4H1831-bN; assay: two-hybrid library CCNG1
# [15] = molecular target: T15, 4H4073-bN; assay: two-hybrid library CCNG1
# [16] = molecular target: T16, 4H683-bN; assay: two-hybrid library CCNG1
# [17] = molecular target: T17, 4H918-bN; assay: two-hybrid library CCNG1
# [18] = molecular target: T18, 4H1373-bN; assay: two-hybrid library CCNG1
# [19] = molecular target: T19, 4H457-bN; assay: two-hybrid library CCNG1
# [20] = molecular target: T20, 4H2627-bN; assay: two-hybrid library CCNG1
# [21] = molecular target: T21, 4H3628-bN; assay: two-hybrid library CCNG1
# [22] = molecular target: T22, 4H968-bN; assay: two-hybrid library CCNG1
# [23] = molecular target: T23, 4H780-bN; assay: two-hybrid library CCNG1
# [24] = molecular target: T24, 4H3298-bN; assay: two-hybrid library CCNG1
# [25] = molecular target: T25, 4H346-bN; assay: two-hybrid library CCNG1
# [26] = molecular target: T26, 4H3162-bN; assay: two-hybrid library CCNG1
# [27] = molecular target: T27, 4H1544-bN; assay: two-hybrid library CCNG1
# [28] = molecular target: T28, 4H2586-bN; assay: two-hybrid library CCNG1
# [29] = molecular target: T29, 4H575-bN; assay: two-hybrid library CCNG1
# [30] = molecular target: T30, 4H1081-bN; assay: two-hybrid library CCNG1; conditions: mean of both orientations
# [31] = molecular target: T31, 4H591-bN; assay: two-hybrid library CCNG1
# [32] = molecular target: T32, 4H3613-bN; assay: two-hybrid library CCNG1
# [33] = molecular target: T33, 4H3112-bN; assay: two-hybrid library CCNG1
# [34] = molecular target: T34, 4H3175-bN; assay: two-hybrid library CCNG1
# [35] = molecular target: T35, 4H1985-bN; assay: two-hybrid library CCNG1
# [36] = molecular target: T36, 4H797-bN; assay: two-hybrid library CCNG1
# [37] = molecular target: T37, 4H1348-bN; assay: two-hybrid library CCNG1
# [38] = molecular target: T38, 4H170-bN; assay: two-hybrid library CCNG1
# [39] = molecular target: T39, 4H953-bN; assay: two-hybrid library CCNG1
# [40] = molecular target: T40, 4H3462-bN; assay: two-hybrid library CCNG1
# [41] = molecular target: T41, 4H2673-bN; assay: two-hybrid library CCNG1
# [42] = molecular target: T42, 4H3497-bN; assay: two-hybrid library CCNG1
# [43] = molecular target: T43, 4H2702-bN; assay: two-hybrid library CCNG1
# [44] = molecular target: T44, 4H626-bN; assay: two-hybrid library CCNG1
# [45] = molecular target: T45, Core_NINN-es_KKKK; assay: two-hybrid library CCmax; conditions: mean of both orientations
# [46] = molecular target: T46, Core_NNIN-es_KEKE; assay: two-hybrid library CCmax; conditions: mean of both orientations
binder,measurement,setting,value
B1,interaction score,[1],0.163
same,interaction score,[2],-1.43
same,interaction score,[3],-0.693
same,interaction score,[4],-0.856
same,interaction score,[5],-2.73
same,interaction score,[6],1.86
same,interaction score,[7],-2
same,interaction score,[8],-0.379
same,interaction score,[9],-0.492
same,interaction score,[10],-1.04
same,interaction score,[11],-1.78
same,interaction score,[12],-0.819
same,interaction score,[13],-0.498
same,interaction score,[14],-0.661
same,interaction score,[15],-0.961
same,interaction score,[16],-0.818
same,interaction score,[17],-1.87
same,interaction score,[18],-1.6
same,interaction score,[19],-0.831
same,interaction score,[20],-0.602
same,interaction score,[21],-0.745
same,interaction score,[22],-1.97
same,interaction score,[23],-1.12
same,interaction score,[24],-1.1
same,interaction score,[25],-0.916
same,interaction score,[26],-1.74
same,interaction score,[27],-1.22
same,interaction score,[28],-0.764
same,interaction score,[29],-1.36
same,interaction score,[30],-0.711
same,interaction score,[31],-1
same,interaction score,[32],-1.17
same,interaction score,[33],-0.643
same,interaction score,[34],-0.589
same,interaction score,[35],-1.65
same,interaction score,[36],-0.855
same,interaction score,[37],-1.49
same,interaction score,[38],-1.72
same,interaction score,[39],-0.906
same,interaction score,[40],-0.385
same,interaction score,[41],-0.316
same,interaction score,[42],-0.836
same,interaction score,[43],0.0755
same,interaction score,[44],-1.12
B2,interaction score,[45],2
B3,interaction score,[46],1.67
